This assay concerns the target CaV1.2 truncated at aa 1820, fused to YFP (CaV1.2^Δ1820-YFP) (UniProt P15381).

Take “Distal C-terminal domain of CaV1.2 fused to Renilla luciferase (DCtermD-RLuc) (domain or fragment)”: the CDI fraction of CaV1.2^Δ1820 at 0 mV, without versus with DCtermD overexpressed was found to be 0.03.

These data come from article PMC11067984.
